Here are results for one molecule from patent US12098378B2, “Anti-fungal polypeptides” (priority 2020, dated 2024).

The test system of one assay is Fraction 3. Description: ELISA with biotinylated liposomes on streptavidin-coated plates. Type of assay: binding, Botrytis cinerea. From the text:
Dissociation constants (Kd) can be estimated based on the results of an ELISA. In equilibrium analysis as in ELISA, the Kd can be calculated from the equilibrium binding response. Where the ELISA plate wells are coated with a target antigen, and where the target antigen may be a lipid-containing fraction of the membrane of Botrytis cinerea, such a method may further use a range of concentrations of a polypeptide binding the target antigen. Where the ELISA generally provides a quantitative adsorption measure for each polypeptide concentration representing binding of the polypeptide to the target antigen, the range of concentration of a polypeptide may for example be 0.5, 1, 2.5, 5, and 10 μM. The most suitable range of concentrations used can vary depending on the affinity of the polypeptide to the target antigen. The corresponding absorption values as determined by ELISA may result in a sigmoid curve when absorption values are plotted against the logarithmic conversion of the polypeptide concentrations. This sigmoid curve may serve to define an IC50 value. Where this IC50 is the concentration of polypeptide where the corresponding absorption value is 50% of the saturated value as estimated by the maximum of the sigmoidal function, the Kd can be estimated by 1/Ka were the association constant (Ka) can be estimated as 1/IC50. Thus Kd corresponds to the analyte concentration that reaches equilibrium at 50% binding saturation. Commonly computation methods can be used for these calculations. For example, this can be done using GraphPad. In some embodiments, the Kd may be determined by surface plasmon resonance (SPR).
The above-mentioned method for the formation of liposomes (Example 12) was modified with the addition of a biotinylated lipid (12:0 Biotinyl M G (1-(12-N-biotin)aminododecanoyl-rac-glycerol), Sigma Aldrich), to allow for use of these liposomes for ELISA using streptavidin-coated plates (Pierce™ Streptavidin Coated High Capacity Plates, Clear, 96-Well, blocked with SuperBlock™ Buffer, Thermo Fisher Scientific).
To estimate the dissociation constant Kd value of 10G11 binding to Fraction 3, the ELISA set-up with biotinylated liposomes from Fraction 3 as described in Example 13 was used. 10G11 polypeptide was added in the following concentrations: 0.5, 1, 2.5, 5, and 10 μM, prepared by a serial dilution in phosphate buffer. […] This plot was used to estimate the Kd dissociation constant using GraphPad. Where non-linear regression fitting was used.

The next assay relates to Botrytis cinerea R16. Description: Prolonged incubation antifungal assay followed over 14 days. Type of assay: cell-based. Particulars: followed over a period of 14 days (FIG. 9). As to the method:
Two-fold dilutions of purified VHH 10G11Q were prepared in 96-well microtiter plates. To 20 μl of these dilutions and to 20 μl of water as a control, 80 μl of fungal spore suspension (1 E+05 spores/ml in half strength potato dextrose broth (PDB)) were added, starting with a final VHH 10G11Q concentration of 10 μM. […] All tests were performed in at least 2 replicates.

In another assay the test system is Botrytis cinerea. The experiment in a line: Control of Botrytis cinerea on grapevine in field. In kind it is in vivo. Particulars: 250, 500, 750 g ai/ha, 4 applications; until 20 days after the last application (FIG. 19). The procedure: Four replicates of 10 vines (33.6 m^2 per plot) were treated with 8 l of spray solution, corresponding with a spray volume of […], according to local practice. The spray mix contained a concentration of active ingredient as described in Table 3. Four applications were done at specific phenological development stages of the vines: BBCH 77, BBCH 79, BBCH 81 and BBCH 85 (according to the standardised BBCH-scale). No artificial infection was performed, and first spray was placed preventative, based on forecasted disease pressure. The efficacy of 10G11 was compared to that of a non-treated control and the chemical reference Teldor (Fenhexamid). In addition, a chemical rotation of Switch (Fludioxonil+cyprodinil) and Teldor and a rotation of Switch and 10G11 was tested.
Disease severity is recorded as percent severity on a scale of 0-100% (PESSEV). Recording started when first symptoms appeared, just prior to the fourth application. Additional assessments were performed 13 and 20 days after the last application. At each assessment, the percentage of grape bunch surface affected by the disease was estimated on 100 randomly selected bunches per plot.

The test system of another assay is Oidium neolycopersici. The experiment in a line: Control of powdery mildew on tomato. Type of assay: in vivo. Particulars: 250, 500, 750 g ai/ha, 5 applications, until one week after the last application. As to the method:
Four replicates of 15 tomato plants (9.9 m^2 per plot) were treated with […] of spray solution, corresponding with a spray volume of […], according to local practice. The spray mix contained a concentration of active ingredient as described in Table 5. Five applications were performed spaced 7 days apart. No artificial infection was performed and first spray was placed when first symptoms were observed. The efficacy of 10G11 was compared to that of a non-treated control and the chemical reference Topas (Penconazole). In addition, a chemical rotation of Systhane Forte (Myclobutanil), Ortiva (Azoxystrobin), Signum (Boscalid. Pyraclostrobin) and Topas was evaluated. A seventh treatment replaced part of the chemicals in this chemical rotation by 10G11 as described in Table 5.
The percentage of leaf area affected by the disease (disease severity) was recorded in 10 randomly selected leaves per plot. Percentage incidence (PESINC; % of affected leaves), was calculated based on these values. Assessments were performed on a weekly basis and continued until 1 week after the last application.

In a further assay the test system is Podosphaera aphanis. The experiment in a line: Control of powdery mildew on strawberry in greenhouse. To be noted: 250, 500, 750 g ai/ha, 6 applications. In kind it is in vivo. As to the method: Four replicates of 20 strawberry plants (3 m^2 per plot) were treated with 0.576 or 0.72 l of spray solution, corresponding with a spray volume of […], according to local practice. The spray mix contained a concentration of active ingredient as described in Table 6. Six applications were performed spaced 7 days apart. No artificial infection was performed and first spray was placed before first symptoms appeared. The efficacy of 10G11 was compared to that of a non-treated control and the chemical reference Topas 2.5 WG (Penconazole). In addition, a chemical rotation of Ganzo (Myclobutanil), Topas 2.5 WG (Penconazole) and Signum (Boscalid+Pyraclostrobin) was evaluated. A seventh treatment replaced part of the chemicals in this chemical rotation by 10G11 as described in Table 6.
Efficacy assessments were performed on 20 leaves per plot, assessing the percentage of leaf area affected (PESSEV) and the percentage of leaves affected (PESINC) on the whole plot. Assessments were performed on a weekly basis and continued until 2 weeks after the last application.

B1: 10G11: VHH polypeptide, SEQ ID NO: 2, begins with a D residue (protein)
VHH: DVQLVESGGGLVQAGGSLRLSCAASRSIFSINAMDWYRQAPGKQREWVAGITRGGTTKYADSVKGRFTISRDNAKKKVYLQMNSLKPEDTAVYYCNVLRGEQPWTRDYWGQGTQVTVSS
As for B1, the IC50 with Fraction 3 (0.5, 1, 2.5, 5 and 10 μM polypeptide, non-linear regression fitting in GraphPad (FIG. 29), read-out: IC50 of ELISA absorption plot) is 760 to 1550 nM. On Fraction 3 (converted from the ELISA IC50 range (FIG. 29), read-out: dissociation constant Kd, estimate), the dissociation constant Kd was 760 to 1550 nM. Moreover, the “effect on preventing spore outgrowth” value in the assay with Botrytis cinerea R16 is reported as “allowed spore outgrowth to partly reinitiate after 3 days”. The “percent severity (PESSEV) of Botrytis cinerea on grape bunches” value with Botrytis cinerea was “clear and dose-related performance”. The “severity of powdery mildew on tomato (percentage of leaf area affected)” value in the assay with Oidium neolycopersici (mild disease pressure (FIG. 22)) was “clear and dose-related performance”. Further, the “incidence (PESINC) of powdery mildew on tomato” value in the assay with Oidium neolycopersici (mild disease pressure (FIG. 23)) was “clear and dose-related performance”. For the same molecule, the “severity (PESSEV) of powdery mildew on strawberry” value in the assay with Podosphaera aphanis (until two weeks after the last application (FIG. 24)) is “clear and dose-related performance”. For the same molecule, in the assay on Podosphaera aphanis (until two weeks after the last application (FIG. 25)), the “incidence (PESINC) of powdery mildew on strawberry” value was “clear and dose-related performance”.

The IC50 is the concentration at which inhibition is half-maximal. The Kd is the constant that tells how readily two partners part at equilibrium.
